These results are taken from patent publication US11491206B1, “Compositions and methods for the treatment of trail-resistant cancer” (Duke University, priority 2018, dated 2022).

Values joined by “and” are separate entries in the source; they are usually repeats but may differ in a detail not shown here. Equal entries are not always repeated.

One data set concerns CRC12x. The experiment in a line: Single-agent cytotoxicity in patient-derived CRC12x. The data set is classed as cell-based, human. The method, then: (§1) For single-agent cytotoxicity evaluation, DRA and ELP-DRA fusion proteins were tested in vitro using a colorimetric formazan assay (MTT) as follows. […] The cells were then treated with 10 μL additional media containing a serial dilution of the drug(s) of interest. All treatments were done in triplicate. […] The inhibition of cell viability was determined using measurements of the absorbance at 490 nm, which is the absorbance maximum of the formazan product. The dose-response curves were generated by plotting inhibition as a function of compound concentration.

Data set [1] concerns HCT116, HCT15, Colo205, DLD-1, and Lovo. The data set can be described thus: Single-agent cytotoxicity (MTT) in TRAIL-sensitive CRC cell lines. Format: cell-based, human. The method, then: as §1
The test system of the next data set is T84. The experiment in a line: Single-agent cytotoxicity (MTT) in T84. The data set is classed as cell-based, human. The method, then:
as §1

Data set [2] deals with RKO cells. The experiment in a line: Single-agent cytotoxicity (MTT) in RKO. Format: cell-based, human. The method, then: as §1
The test system of a further data set is CRC119. The experiment in a line: Single-agent cytotoxicity in patient-derived CRC119. The data set is classed as cell-based, human. To be noted: CRC119s. The method, then:
as §1

The test system of a further data set is CRC247. The data set can be described thus: Single-agent cytotoxicity in patient-derived CRC247. The data set is classed as cell-based, human. The method, then:
as §1

The conditions of data set [3]: in vivo; cited from earlier work.
Another data set has as its system HT29 cells. The experiment in a line: Single-agent cytotoxicity (MTT) in HT29. The data set is classed as cell-based, human. The procedure: as §1
The subject of data set [4] is RKO cells. The data set can be described thus: Flow cytometry Annexin V apoptosis quantification in RKO. The data set is classed as cell-based, human. Particulars: for % positive Annexin V+: single replicate, listed as SA. The method, then:
Flow Cytometry for Annexin-V Apoptosis Quantification. Cells were seeded in six-well plates overnight. The next day, cells were treated with the indicated amount of drug(s) or vehicle control (DMSO). Incubation time was 15 h for etoposide or 48 h for DRA alone, or DRA with sensitizers. To prepare samples for flow cytometry, each well of cells was washed twice with ice-cold PBS and resuspended in 1× annexin V binding buffer (10 mM HEPES, 140 mM NaCl, 2.5 mM CaCl2, pH 7.4) BD Biosciences). Allophycocyanin (APC)-conjugated Annexin V was used to measure surface exposure of phosphatidylserine and 7-aminoactinomycin D (7-AAD) was used as a viability probe (BD Biosciences). Cell samples were analyzed at 20,000 counts/sample using BD FACSVantage SE.

A further data set deals with mouse death receptor (Mus musculus, UniProt Q9QZM4). Particulars: previous studies; cited from earlier work.
mouse death receptor, sequence (Q9QZM4 53-381): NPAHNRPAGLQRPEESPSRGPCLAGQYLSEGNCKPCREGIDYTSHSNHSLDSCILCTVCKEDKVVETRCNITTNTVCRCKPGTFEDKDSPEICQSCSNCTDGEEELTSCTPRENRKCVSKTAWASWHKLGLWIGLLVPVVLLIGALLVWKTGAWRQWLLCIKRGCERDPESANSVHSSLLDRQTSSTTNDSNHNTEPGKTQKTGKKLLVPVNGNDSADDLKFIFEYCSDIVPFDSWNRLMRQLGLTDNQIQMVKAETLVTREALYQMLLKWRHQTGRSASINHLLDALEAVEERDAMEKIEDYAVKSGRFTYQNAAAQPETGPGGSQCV

B1: DRA: hexameric protein of Tn3 fibronectin type III domains (SEQ ID NO: 1) binding DR5, joined by glycine-serine linkers (protein)
chain: GAIEVKDVTDTTALITWAKPWVDPPPLWGCELTYGIKDVPGDRTTIDLQQKHTAYSIGNLKPDTEYEVSLICFDPYGMRSKPAKETFTTGGGGSGGGGSGGGGSGAIEVKDVTDTTALITWAKPWVDPPPLWGCELTYGIKDVPGDRTTIDLQQKHTAYSIGNLKPDTEYEVSLICFDPYGMRSKPAKETFTTGGGGSGGGGSGGGGSGAIEVKDVTDTTALITWAKPWVDPPPLWGCELTYGIKDVPGDRTTIDLQQKHTAYSIGNLKPDTEYEVSLICFDPYGMRSKPAKETFTTGGGGSGGGGSGGGGSGAIEVKDVTDTTALITWAKPWVDPPPLWGCELTYGIKDVPGDRTTIDLQQKHTAYSIGNLKPDTEYEVSLICFDPYGMRSKPAKETFTTGGGGSGGGGSGGGGSGAIEVKDVTDTTALITWAKPWVDPPPLWGCELTYGIKDVPGDRTTIDLQQKHTAYSIGNLKPDTEYEVSLICFDPYGMRSKPAKETFTTGGGGSGGGGSGGGGSGAIEVKDVTDTTALITWAKPWVDPPPLWGCELTYGIKDVPGDRTTIDLQQKHTAYSIGNLKPDTEYEVSLICFDPYGMRSKPAKETFTTGGGGSGGGGSGGGGSHHHHHHHH
Consider B1, for which the EC50 in the data set with CRC12x was 0.0098 nM; in data set [1] (all tested TRAIL-sensitive cell lines), “picomolar range”; in the data set with RKO cells [2], more than 100 nM; in the data set on CRC119, 0.0261 nM. For the same molecule, the “increase in potency of DRA compared to TRAIL (T/D fold, EC50-TRAIL/EC50-DRA)” value in data set [1] (TRAIL-sensitive cell lines) is 70-1700 times. Also, the cytotoxicity result is reported as “induces cytotoxicity” in the data set on T84, “highly resistant” in the data set with CRC247 and “induces cytotoxicity” with HT29 cells. Further, in data set [3], the half-life entry is recorded as “approximately 36 min”. Also, the entries for the “Average % positive Annexin V+” value in the data set on RKO cells [4] (0.5 pM SA) and with RKO cells [4] (1 pM SA) were 4.90% and 6.01%, respectively. Besides, the “% positive Annexin V+” value was 5.32% and 5.86% and 3.53% in the data set on RKO cells [4] (0.5 pM SA); 6.97% and 5.22% and 5.85% with RKO cells [4] (1 pM SA). Further, in the data set with mouse death receptor, the “interaction with mouse death receptor” value is “no interaction”.

B2: DRA monomer: single Tn3 type III fibronectin domain engineered to bind DR5 (protein)
chain: GAIEVKDVTDTTALITWAKPWVDPPPLWGCELTYGIKDVPGDRTTIDLQQKHTAYSIGNLKPDTEYEVSLICFDPYGMRSKPAKETFTT
Turning to B2, in [1] (sensitive cell lines), the “induction of cell death” value was “do not induce cell death”.
